Like-named read-outs stand apart in the source and are kept apart here.
Key:
[1] = biological target: Recombinant human cyclophilin A (human) (UniProt P62937); assay: native MS
[2] = biological target: Recombinant human cyclophilin A (human) (UniProt P62937); assay: native MS; remark: listed apart in the source

Question: “Recombinant human cyclophilin A (from UniProt P62937 1-165) (enzyme)” was tested. Which stoichiometry N [1] did it give?
Answer: The stoichiometry N was 2.

Question: And the stoichiometry N [2]?
Answer: Its stoichiometry N is 2.

— doi:10.1101/2020.10.06.328112
